Paper PMC3019557 (The Journal of Cell Biology, 2011)

B1: EYFP-SRC-3 (steroid receptor coactivator 3 fused to EYFP) (natural protein)
chain: not shown
B2: EYFP-SRC-2 (steroid receptor coactivator 2 fused to EYFP) (natural protein)
chain: not shown

Target: T1, CFP-PPARγ2 (peroxisome proliferator activated receptor γ2 fused to ECFP) (UniProt P37231-1 1-505)
T1 sequence (looked up): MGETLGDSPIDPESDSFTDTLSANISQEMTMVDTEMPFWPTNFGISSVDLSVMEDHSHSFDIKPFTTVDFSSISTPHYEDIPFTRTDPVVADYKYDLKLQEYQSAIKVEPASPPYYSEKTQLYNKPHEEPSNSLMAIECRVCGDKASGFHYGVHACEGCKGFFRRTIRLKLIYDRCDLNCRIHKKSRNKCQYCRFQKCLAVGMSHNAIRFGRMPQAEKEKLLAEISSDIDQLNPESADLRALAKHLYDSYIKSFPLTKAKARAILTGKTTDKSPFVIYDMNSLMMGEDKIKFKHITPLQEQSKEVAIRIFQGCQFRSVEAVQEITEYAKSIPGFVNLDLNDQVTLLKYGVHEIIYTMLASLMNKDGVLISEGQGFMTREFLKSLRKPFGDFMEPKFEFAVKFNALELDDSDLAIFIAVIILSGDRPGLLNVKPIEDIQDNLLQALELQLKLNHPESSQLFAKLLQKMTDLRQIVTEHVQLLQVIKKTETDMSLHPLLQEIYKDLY
Experiment: FRET or BRET

Binder	fold change in FRET, MIX against vehicle
B1	> 1.5 fold
B2	> 1.5 fold
